Measurements taken from patent publication US20060046271A1 (VANDERBILT UNIVERSITY, published 2006).

Target: α2bβ3 receptor (mouse (endogenous, tumor-bearing …, UniProt Q9QUM0 32-1033; O54890 26-787)
Experiment: cell-based or functional assay

Chain of α2bβ3 receptor (mouse (Q9QUM0 32-1033, chain 1 of 2): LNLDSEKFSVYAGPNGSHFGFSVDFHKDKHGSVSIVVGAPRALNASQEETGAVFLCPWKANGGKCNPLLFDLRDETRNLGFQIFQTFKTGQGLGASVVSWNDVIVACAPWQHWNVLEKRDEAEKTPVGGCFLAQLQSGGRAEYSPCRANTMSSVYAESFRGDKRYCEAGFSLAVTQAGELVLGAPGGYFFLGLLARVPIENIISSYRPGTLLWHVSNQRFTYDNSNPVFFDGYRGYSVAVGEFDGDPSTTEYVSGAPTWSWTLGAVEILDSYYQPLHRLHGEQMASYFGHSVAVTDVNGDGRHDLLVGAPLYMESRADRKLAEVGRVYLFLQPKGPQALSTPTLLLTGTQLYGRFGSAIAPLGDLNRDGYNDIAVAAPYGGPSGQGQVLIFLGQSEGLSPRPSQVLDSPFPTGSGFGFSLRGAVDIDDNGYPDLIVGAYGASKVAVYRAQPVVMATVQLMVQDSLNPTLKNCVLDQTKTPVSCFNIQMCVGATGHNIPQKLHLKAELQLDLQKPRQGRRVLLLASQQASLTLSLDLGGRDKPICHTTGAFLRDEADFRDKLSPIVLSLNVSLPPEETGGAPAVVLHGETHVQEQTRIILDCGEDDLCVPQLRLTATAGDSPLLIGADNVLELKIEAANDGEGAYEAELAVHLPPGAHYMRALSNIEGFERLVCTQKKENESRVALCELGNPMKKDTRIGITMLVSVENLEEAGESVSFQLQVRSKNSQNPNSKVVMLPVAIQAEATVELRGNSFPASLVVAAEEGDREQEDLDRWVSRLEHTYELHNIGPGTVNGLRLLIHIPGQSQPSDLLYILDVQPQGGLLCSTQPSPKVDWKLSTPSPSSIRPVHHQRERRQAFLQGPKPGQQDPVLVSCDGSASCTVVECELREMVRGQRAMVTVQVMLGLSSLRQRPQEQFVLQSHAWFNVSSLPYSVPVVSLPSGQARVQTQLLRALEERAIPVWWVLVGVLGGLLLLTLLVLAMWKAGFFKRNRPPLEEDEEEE
Chain of α2bβ3 receptor (mouse (O54890 26-787, chain 2 of 2): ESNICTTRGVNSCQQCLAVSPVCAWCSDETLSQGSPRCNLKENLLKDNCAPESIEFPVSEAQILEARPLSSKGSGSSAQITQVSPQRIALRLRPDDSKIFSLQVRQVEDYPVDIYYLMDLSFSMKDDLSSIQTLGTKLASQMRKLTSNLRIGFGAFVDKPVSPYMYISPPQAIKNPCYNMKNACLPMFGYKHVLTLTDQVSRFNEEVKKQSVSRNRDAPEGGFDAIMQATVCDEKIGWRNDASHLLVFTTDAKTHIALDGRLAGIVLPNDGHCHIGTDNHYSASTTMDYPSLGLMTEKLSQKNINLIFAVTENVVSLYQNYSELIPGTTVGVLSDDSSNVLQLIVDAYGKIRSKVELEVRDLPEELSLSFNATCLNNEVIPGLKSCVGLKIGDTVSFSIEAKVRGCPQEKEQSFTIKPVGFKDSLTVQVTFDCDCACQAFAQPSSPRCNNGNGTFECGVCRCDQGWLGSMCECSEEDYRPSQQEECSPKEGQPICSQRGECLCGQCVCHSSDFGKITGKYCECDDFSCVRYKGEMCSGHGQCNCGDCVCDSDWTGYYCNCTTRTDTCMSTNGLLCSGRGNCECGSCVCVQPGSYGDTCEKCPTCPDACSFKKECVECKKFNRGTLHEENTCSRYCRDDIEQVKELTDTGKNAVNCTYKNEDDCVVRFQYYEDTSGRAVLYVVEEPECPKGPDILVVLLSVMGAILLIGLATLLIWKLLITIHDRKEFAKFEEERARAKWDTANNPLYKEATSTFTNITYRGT

B1: Phage encoding SLRGDGSSV (SEQ ID NO: 2) on the capsid protein (peptide)
peptide: MASMTGGQQMGTNQGKGVVAAGDKLALFLKVFGGEVLTAFARTSVTTSRHMVRSISSGKSAQFPVLGRTQAAYLAPGENLDDKRKDIKHTEKVITIDGLLTADVLIYDIEDAMNHYDVRSEYTSQLGESLAMAADGAVLAEIAGLCNVESKYNENIEGLGTATVIETTQNKAALTDQVALGKEIIAALTKARAALTKNYVPAADRVFYCDPDSYSAILAALMPNAANYAALIDPEKGSIRNVMGFEVVEVPHLTAGGAGTAREGTTGQKHVFPANKGEGNVKVAKDNVIGLFMHRSAVGTVKLRDLALERARRANFQADQIIAKYAMGHGGLRPEAAGAVVFQSGVMLNSLRGDGSSV
  phage binding in tumor (phage recovered, quantified by plaque formation): 4 fold
